Assay results from PMC12748864, “Potent neutralization by antibodies targeting the MPXV A28 protein” (Nature Communications, 2025).

Assays:
Conditions in all cases: both partners purified
[1] = molecular target: T1, VACV A26 (OPG153), residues 2-361 (Vaccinia virus strain IHDW, template …, UniProt P24758, strain); assay: ELISA
T1 construct: also called VACV homolog of A28

[2] = molecular target: MPXV A28 (OPG153), residues 2-361 (Monkeypox virus, template GenBank …, UniProt A0A7H0DNC4); assay: ELISA
Chain of MPXV A28 (OPG153), residues 2-361 (A0A7H0DNC4 whole entry, looked up, the tested form may be a part): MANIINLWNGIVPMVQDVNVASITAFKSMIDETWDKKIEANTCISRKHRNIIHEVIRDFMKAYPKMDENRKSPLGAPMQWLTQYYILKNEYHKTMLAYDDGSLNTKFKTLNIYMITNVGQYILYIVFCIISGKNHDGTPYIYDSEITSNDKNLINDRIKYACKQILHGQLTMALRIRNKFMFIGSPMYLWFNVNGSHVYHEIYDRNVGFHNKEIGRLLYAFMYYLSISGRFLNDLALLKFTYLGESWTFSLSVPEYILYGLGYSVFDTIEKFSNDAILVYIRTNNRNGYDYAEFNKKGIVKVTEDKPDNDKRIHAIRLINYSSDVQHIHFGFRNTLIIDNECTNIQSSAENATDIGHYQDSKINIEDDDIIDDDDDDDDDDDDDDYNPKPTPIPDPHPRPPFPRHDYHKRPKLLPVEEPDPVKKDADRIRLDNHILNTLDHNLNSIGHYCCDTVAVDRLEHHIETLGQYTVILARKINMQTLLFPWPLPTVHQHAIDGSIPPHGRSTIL

[3] = molecular target: T2, VACV A26 head domain (amino acids 1-397), strain Western Reserve (Vaccinia virus (strain Western Reserve), UniProt P24758); assay: crystal structure
T2 construct: also called residues 1-397 of A26

B1: Germline 1 (germline-reverted 10M2146 / 10M2154) (antibody, V domains shown)
VH: EVQLVQSGAEVKKPGESLKISCKGSGYSFTSYWIGWVRQMPGKGLEWMGIIYPGDSDTRYSPSFQGQVTISADKSISTAYLQWSSLKASDTAMYYCARRPKYYYDSSGYYNWLDPWGQGTLVTVSS
VL: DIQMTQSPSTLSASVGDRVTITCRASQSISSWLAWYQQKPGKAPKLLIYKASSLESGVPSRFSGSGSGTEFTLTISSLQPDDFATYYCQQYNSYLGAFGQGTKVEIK
- binding result [1]: binds
- binding result [2]: binds

B2: mAb 10M2146 (human IgG1, anti-A28) (antibody, V domains shown)
VH: EVQLVQSGAEVKKPGESLKISCKGSGYSFTTHWIGWVRQMPGEGLEWLGIIYPGDSETKYSPSFQGQVTISVDKSINTAYLHWSSLKASDTAMYFCARRPKNYYDASGYYNWLDPWGQGTLVTVSS
VL: EIQMTQSPSTLSASVGDRVTITCRASQSLSTWLAWYQQKPGKAPKLLIYKASILESGVPSRFSASGSGTEFTLTISGLQPDDFATYYCQQYNSYLGAFGQGTKVEIK
- binding result [1]: binds
- binding result [2]: binds

B3: Fab 10M2146 (Fab, V domains shown)
VH: EVQLVQSGAEVKKPGESLKISCKGSGYSFTTHWIGWVRQMPGEGLEWLGIIYPGDSETKYSPSFQGQVTISVDKSINTAYLHWSSLKASDTAMYFCARRPKNYYDASGYYNWLDPWGQGTLVTVSS
VL: EIQMTQSPSTLSASVGDRVTITCRASQSLSTWLAWYQQKPGKAPKLLIYKASILESGVPSRFSASGSGTEFTLTISGLQPDDFATYYCQQYNSYLGAFGQGTKVEIK
notes: also called 10M2146 F(ab)
- binding result [3]: binds
